We go through 1 protein from paper PMC11191739, “Structural Flexibility and Disassembly Kinetics of Single Ferritin Molecules Using Optical Nanotweezers” (ACS Nano, 2024).

This series concerns the molecule itself. The series can be described thus: mass photometry; 50 nM ferritin at pH 2, measured at 1, 3 and 60 min, TwoMP mass photometer.

B1: holo-ferritin (derived from equine spleen, F4503) (natural protein)
chain 1: MSSQIRQNYSTEVEAAVNRLVNLYLRASYTYLSLGFYFDRDDVALEGVCHFFRELAEEKREGAERLLKMQNQRGGRALFQDLQKPSQDEWGTTLDAMKAAIVLEKSLNQALLDLHALGSAQADPHLCDFLESHFLDEEVKLIKKMGDHLTNIQRLVGSQAGLGEYLFERLTLKHD
chain 2: MTTAFPSQVRQNYHQDSEAAINRQINLELHASYVYLSMSFYFDRDDVALKNFAKYFLHQSHEEREHAEKLMKLQNQRGGRIFLQDIKKPDQDDWENGLKAMECALHLEKNVNESLLELHKLATDKNDPHLCDFLETHYLNEQVKAIKELGDHVTNLRRMGAPESGMAEYLFDKHTLGECDES
notes: ferritin light (L) chain, equine spleen; ferritin heavy (H) chain, equine spleen; It carries a ferrihydrite iron core; Rows of m1 with itself describe the self-association of the subunits; also called equine spleen ferritin; source: bought: Sigma-Aldrich (F4503), derived from equine spleen
For B1, the “stoichiometry N” value was 18.
